Reference: the RNAGym collection of RNA variant scans (doi:10.7554/elife.80360)

B1: HDV Ribozyme (parent)
chain: GGCCGGCAUGGUCCCAGCCUCCUCGCUGGCGCCGGCUGGGCAACAUUCCGAGGGGACCGUCCCCUCGGUAAUGGCGAAUGGGACCCA

Variants of: B1
Assay: self-cleavage, relative activity (ratio to wild type); higher = more cleavage; co-transcriptional

Variant	self-cleavage
CGCCGGCAUGGUCCCAGCCUCCUCGCUGGCGCCGGCUGAGCAACAUUCCGAGGGGACCGUCCCCUCGGUAAUGGCGAAUGGGACCCA [G1C G39A]	0.203
CGCCGGCAUGGUCCCAGCCUCCUCGCUGGCGCCGGCUGUGCAACAUUCCGAGGGGACCGUCCCCUCGGUAAUGGCGAAUGGGACCCA [G1C G39U]	0.116
UGCCGGCAUGGUCCCAGCCUCCUCGCUGGCGCCGGCUGGGCAACAUUCCGAGGGGACCGUCCCCUCGGUAAUGGCGAAUGGGACCCA [G1U]	0.391
CGCCGGCAAGGUCCCAGCCUCCUCGCUGGCGCCGGCUGGGCAACAUUCCGAGGGGACCGUCCCCUCGGUAAUGGCGAAUGGGACCCA [G1C U9A]	0.0978
CGCCGGCAUGGUCCCAGCCUCCUCGCUGGCGCCGGCUGGGCAACAUUCCGAGGGGACCGUCCCCUCGGUAAUCGCGAAUGGGACCCA [G1C G73C]	0.142
CGCCGGCAUGGUCCCAGCCUCCUCGCUGGCGCCGGCUGGGCAACAUUCCGAGGGGGCCGUCCCCUCGGUAAUGGCGAAUGGGACCCA [G1C A56G]	0.356
CGCCGGCAUGGUCCCAGCCUCCUCGCUGGCGCCGGCUGGGCAACAUUCCGAGGGGCCCGUCCCCUCGGUAAUGGCGAAUGGGACCCA [G1C A56C]	0.172
CGCUGGCAUGGUCCCAGCCUCCUCGCUGGCGCCGGCUGGGCAACAUUCCGAGGGGACCGUCCCCUCGGUAAUGGCGAAUGGGACCCA [G1C C4U]	0.0489
CGCCGGCAUGGUCCCAGCCUCCUCGCUGGCGCCGGCUGGGCAACAUUCCGAGGGGACCGUCCCCUCGGUAACGGCGAAUGGGACCCA [G1C U72C]	0.111
CGCCGGCAUGGUCCCAGCCUCCUCGCUGGCGCCGGCUGGGCAACAUUCCGAGGGGACCGUCCCCUCGGUAAAGGCGAAUGGGACCCA [G1C U72A]	0.32
CGCCGGCAUGGUCCCAGCCUCCUCGCUGGCGCCGGCUGGGCAACAUUCCGAGGGGACCGUCCCCUCGGUGAUGGCGAAUGGGACCCA [G1C A70G]	0.453
CGCCGGCAUGGUCCCAGCCUCCUCGCUGGCGCCGGCUGGGCAACAUUCCGAGGGGACCGUCCCCUCGGUUAUGGCGAAUGGGACCCA [G1C A70U]	0.115
CGCCUGCAUGGUCCCAGCCUCCUCGCUGGCGCCGGCUGGGCAACAUUCCGAGGGGACCGUCCCCUCGGUAAUGGCGAAUGGGACCCA [G1C G5U]	0.175
CGACGGCAUGGUCCCAGCCUCCUCGCUGGCGCCGGCUGGGCAACAUUCCGAGGGGACCGUCCCCUCGGUAAUGGCGAAUGGGACCCA [G1C C3A]	0.234
CGCCGGCAUGGUCCCAGCCUCCUCGCUGGCGCCCGCUGGGCAACAUUCCGAGGGGACCGUCCCCUCGGUAAUGGCGAAUGGGACCCA [G1C G34C]	0.0594
CGCCGGCAUGGUCCCAGCCUCCUCGCUGGCGCCGGCAGGGCAACAUUCCGAGGGGACCGUCCCCUCGGUAAUGGCGAAUGGGACCCA [G1C U37A]	0

Variant	self-cleavage
CGCCGGCAUGGUCCCAGCCUCCUCGCUGGCGCCGGCUGGGCAACAUUCCGAGGGGACCGUCCGCUCGGUAAUGGCGAAUGGGACCCA [G1C C63G]	0.0639
CGCCGGCAUGGUCCCAGCCUCCUCGCUGGCGCCGGCUGGGCAACAUUCCGAGGGGACCGUCCACUCGGUAAUGGCGAAUGGGACCCA [G1C C63A]	0.201
CGCCGGCAUGGUCCCAGCCUCCUCGCUGGCGCCGGCUGGGCAACAUUCCGAGGGGACCGUACCCUCGGUAAUGGCGAAUGGGACCCA [G1C C61A]	0.208
CGCCGGCAUGGUCCCAGCCUCCUCCCUGGCGCCGGCUGGGCAACAUUCCGAGGGGACCGUCCCCUCGGUAAUGGCGAAUGGGACCCA [G1C G25C]	0
CGCCGGCAUGGUCCCAGCCUCCUCGCUGGCGCCGGCUGGGCAACAUUCCGAGGGGACCGUCCCCUCGGAAAUGGCGAAUGGGACCCA [G1C U69A]	0.0875
CGCCGGCAUGGUCCCAGCCUCCUCGCUGGCGCCGGCUAGGCAACAUUCCGAGGGGACCGUCCCCUCGGUAAUGGCGAAUGGGACCCA [G1C G38A]	0
CGCCGGCAUGGUCCCAGCCUCCUCGCUGGCGCCGGCUGGGCAACAUACCGAGGGGACCGUCCCCUCGGUAAUGGCGAAUGGGACCCA [G1C U47A]	0.256
CGCCGGCAUGGUCUCAGCCUCCUCGCUGGCGCCGGCUGGGCAACAUUCCGAGGGGACCGUCCCCUCGGUAAUGGCGAAUGGGACCCA [G1C C14U]	0.213
CGCCGGCAUGGUCCCAGCCUCCUCGCUGGAGCCGGCUGGGCAACAUUCCGAGGGGACCGUCCCCUCGGUAAUGGCGAAUGGGACCCA [G1C C30A]	0.104
CGCCGGCAUGGUCCCAGCCUCCUCGCUGGCGCCGGCUGGGCAACACUCCGAGGGGACCGUCCCCUCGGUAAUGGCGAAUGGGACCCA [G1C U46C]	0.229
CGCCGGCAUGGUCCCAGCCACCUCGCUGGCGCCGGCUGGGCAACAUUCCGAGGGGACCGUCCCCUCGGUAAUGGCGAAUGGGACCCA [G1C U20A]	0
CGCCGGCAUGGUCCCAGCCUCCUCGCUGGCGCAGGCUGGGCAACAUUCCGAGGGGACCGUCCCCUCGGUAAUGGCGAAUGGGACCCA [G1C C33A]	0.222
CGCCGGCAUGGUCCCAGCUUCCUCGCUGGCGCCGGCUGGGCAACAUUCCGAGGGGACCGUCCCCUCGGUAAUGGCGAAUGGGACCCA [G1C C19U]	0
CGCCGGCAUGGUCCCAGCCUCCUCGCUGGCGCCGGCUGGGCAACAUUCCGAGGGGACCGUCCCCUCGGUAAUGGCGAAUGGGACCCG [G1C A87G]	0.0712
CGCCGGCAUGUUCCCAGCCUCCUCGCUGGCGCCGGCUGGGCAACAUUCCGAGGGGACCGUCCCCUCGGUAAUGGCGAAUGGGACCCA [G1C G11U]	0.115
CGCCGGCAUGGUCCCAGCCUCCUCGCUGGCGCCGGCUGGGCAACAUUCCGAGGGGACCGUCCCCUCGGUAAUGGCGUAUGGGACCCA [G1C A77U]	0
